# Laboratory results taken from patent US20220251151A1.
# B1: Compound 1 (PaT1) (peptide)
# peptide: QMDMRCSASVECKQKCLKAIGSIFGKCMNKKCKCYPR
# modifications: not checked
# Experiments:
# Assay in all cases: cell-based or functional assay
# [1] = target: T1, human Kv1.6 potassium channel (α-subunit) (human), P17658
# T1 chain: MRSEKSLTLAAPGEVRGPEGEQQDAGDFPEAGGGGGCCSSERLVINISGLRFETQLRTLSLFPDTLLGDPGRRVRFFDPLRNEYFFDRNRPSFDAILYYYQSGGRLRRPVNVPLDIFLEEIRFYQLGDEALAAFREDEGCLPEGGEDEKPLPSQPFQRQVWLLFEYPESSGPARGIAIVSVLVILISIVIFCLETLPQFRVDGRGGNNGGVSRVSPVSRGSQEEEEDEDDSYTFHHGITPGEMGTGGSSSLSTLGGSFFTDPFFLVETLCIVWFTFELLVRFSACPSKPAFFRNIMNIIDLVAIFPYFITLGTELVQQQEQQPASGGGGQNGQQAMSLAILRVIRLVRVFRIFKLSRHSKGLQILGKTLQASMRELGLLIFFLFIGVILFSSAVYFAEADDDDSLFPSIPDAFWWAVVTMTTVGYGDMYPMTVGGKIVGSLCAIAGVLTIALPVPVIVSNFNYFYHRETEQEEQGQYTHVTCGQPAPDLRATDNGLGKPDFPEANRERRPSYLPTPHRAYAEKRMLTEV
# [2] = target: human Kv1.3 potassium channel (potassium voltage-gated channel subfamily A member 3, α-subunit) (human), P22001
# Chain of human Kv1.3 potassium channel (potassium voltage-gated channel subfamily A member 3, α-subunit) (human), P22001 (P22001 whole entry): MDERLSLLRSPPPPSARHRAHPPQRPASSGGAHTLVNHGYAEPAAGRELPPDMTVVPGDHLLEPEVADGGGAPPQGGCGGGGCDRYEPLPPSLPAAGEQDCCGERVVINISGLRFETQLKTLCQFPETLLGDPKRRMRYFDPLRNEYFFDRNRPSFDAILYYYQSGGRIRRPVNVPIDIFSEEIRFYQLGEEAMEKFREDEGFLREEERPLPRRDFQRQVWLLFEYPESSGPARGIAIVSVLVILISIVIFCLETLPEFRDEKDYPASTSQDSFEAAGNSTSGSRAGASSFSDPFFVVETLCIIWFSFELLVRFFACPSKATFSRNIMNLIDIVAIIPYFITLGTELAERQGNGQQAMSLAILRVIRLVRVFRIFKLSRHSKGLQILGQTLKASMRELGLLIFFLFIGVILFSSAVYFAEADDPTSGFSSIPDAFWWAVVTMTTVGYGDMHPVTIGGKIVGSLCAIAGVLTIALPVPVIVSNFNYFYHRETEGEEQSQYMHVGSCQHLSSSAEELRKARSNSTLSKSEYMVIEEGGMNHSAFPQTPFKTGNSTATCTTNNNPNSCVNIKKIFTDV
# [3] = target: human Kv1.2 potassium channel (α-subunit) (human), P16389
# Chain of human Kv1.2 potassium channel (α-subunit) (human), P16389 (P16389 whole entry): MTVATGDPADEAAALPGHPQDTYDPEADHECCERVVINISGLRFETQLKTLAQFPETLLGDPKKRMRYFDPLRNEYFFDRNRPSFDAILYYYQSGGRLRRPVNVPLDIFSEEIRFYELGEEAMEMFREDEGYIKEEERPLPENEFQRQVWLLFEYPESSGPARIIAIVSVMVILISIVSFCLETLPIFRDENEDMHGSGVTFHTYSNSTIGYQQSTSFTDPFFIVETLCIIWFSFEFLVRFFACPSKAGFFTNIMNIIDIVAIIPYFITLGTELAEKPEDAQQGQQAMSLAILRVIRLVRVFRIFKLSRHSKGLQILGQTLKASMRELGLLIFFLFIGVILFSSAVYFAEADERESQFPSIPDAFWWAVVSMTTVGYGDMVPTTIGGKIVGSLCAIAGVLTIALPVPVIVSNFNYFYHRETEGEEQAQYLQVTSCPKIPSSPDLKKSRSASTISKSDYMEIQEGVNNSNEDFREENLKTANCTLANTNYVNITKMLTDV
# [4] = target: T2, human Kv1.1 potassium channel (α-subunit) (human), Q09470
# T2 chain: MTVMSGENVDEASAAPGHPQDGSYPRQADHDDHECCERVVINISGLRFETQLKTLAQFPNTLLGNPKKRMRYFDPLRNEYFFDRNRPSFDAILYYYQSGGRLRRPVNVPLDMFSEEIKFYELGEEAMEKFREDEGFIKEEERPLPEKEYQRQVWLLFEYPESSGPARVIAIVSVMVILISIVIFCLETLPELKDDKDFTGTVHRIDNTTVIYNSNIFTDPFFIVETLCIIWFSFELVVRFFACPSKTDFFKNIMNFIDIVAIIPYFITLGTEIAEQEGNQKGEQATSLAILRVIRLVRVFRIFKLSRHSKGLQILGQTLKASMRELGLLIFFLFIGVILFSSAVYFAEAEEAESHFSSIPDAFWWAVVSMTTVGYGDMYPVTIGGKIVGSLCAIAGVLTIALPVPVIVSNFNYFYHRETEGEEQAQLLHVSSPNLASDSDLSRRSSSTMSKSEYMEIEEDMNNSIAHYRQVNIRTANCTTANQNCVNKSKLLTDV
binder,measurement,setting,value
B1,Potency IC50 (patch clamp),[1],> 3000 nM
same,Selectivity Kv1.6/Kv1.3,[1],> 7900
same,Potency IC50 (patch clamp),[2],0.38 nM
same,anti-CD3 PBMC/IL-2 IC50,[2],0.09 nM
same,Potency IC50 (patch clamp),[3],518 nM
same,Selectivity Kv1.2/Kv1.3,[3],1360
same,Potency IC50 (patch clamp),[4],> 3000 nM
same,Selectivity Kv1.1/Kv1.3,[4],> 7900
